Laboratory results as given in the supplement of paper PMC9170038.

System: MS2 coat protein
Test: apparent KD of MS2 coat protein; higher = weaker reporter binding
Details: Eterna round: R107; input ligand: theophylline 2 mM
Method: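 RNA-MaP round R107: designed RNA switches with theophylline, tryptophan, arginine or FMN aptamers are transcribed on-chip within common flanks. They are titrated with SNAP-549-labelled MS2 coat protein in RNA-MaP buffer (100 mM Tris pH 7.5, 80 mM KCl, 4 mM MgCl2), without ligand or with the indicated ligand. Median apparent KD per design.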

| Sequence | apparent KD of MS2 coat protein [nM] |
| --- | --- |
| GGACUAACCAGAAGGAGCGGCACAGCAGAAACUGCAAAUCCUCCGCACGAGGAUCACCCGUGUCAGGUAGGUCGCUGGUUAGUCG [ArgBX 28] | 49.4 |
| GCUAGUGGCAGAAGGAGCGAGGCUACAUACGGGUACAUGAGGAUCACCCAUGUGGUGUGUACUCAGGUAGGUCGCUGCCACUAGC [SSAB NP+V+V2 #13 Same Structure] | 977 |
| AAGGUGAUCCCAGAUACCAGCUUAACAUGAGGAUCACCCAUGUAACGGACGAAAGUCCGGAGCCCUUGGCAGCUGGGUUGCCAAG [SSTheo B #14] | 141 |
| UCACAUGAGGAUCACCCAUGUGUCAGAGAAGGAGCGGCCGCAAGGCCAGGUAGGUCGCUCAGGUAGCGUGAGGAUCACCCGUGUG [#1 Exclusion - Arginine A Attempt #10 (Inspired by cyborg)] | 141 |
| GGGUGCGGGUGAAGGAGCGUGAAGACAUGAGGAUCACCCAUGUAGAGGCCCGAACAGGGUUCGCAGGUAGGUCGCACCCGUGCCC [#1 Same State - Arginine B Attempt #3 (HarryS)] | 19.5 |
| GGGAGGGAGGCGGCCGCCACUGAUUUUCAUAUAUAUAUAACAUGAGGAUCACCCAUGUGGAUAUGCAGGACCGGGCCUUUUUUUU [aaaJ] | 13.2 |
| GUGCGGUCUGAUGAUACCAGAUGUGGUGGGAACAUGAGGAUCACCCAUGUUGUGAGGCAGGUCCCUUGGCAGCAUGAGUGAGCUU [TheoB-ms2@32-2] | 156 |
| UGUAUGUGAUCUGAUACCAGCUUAAUAGCUUGAGGAUCACCCAAGUGGAGCGGAAACGCUAGCCCUUGGCAGCAGAUCGCAUACU [Denovo 10 #StaticStem #AlternativeMS2] | 11.9 |
| GGUUGGUCCUCACAUGAGGAUCACCCAUGUCGAGGACCGGUACGGCCGCCACUCGAUUGUACCAGGGCUUAAGAGCCUAUGAGCA [Erenedquce] | 17.6 |
| AAACGCUAUGCGGCCGCCACUAAGGUUGGCGUCUAUGUCGUUUAAGACAUGAGGAUCACCCAUGUUAGGACCGGGCAUGUCCGCG [theeternabot_exclusion_MS2_Trp_B_25] | 22.4 |
| GUAGCGACGACGGCCGCCACUCACACGAGAGGGUAGACCAACCUUCACAUGAGGAUCACCCAUGUGAGGACCGGGUUGUCGGUAC [Exclusion - Tryptophan B] | 33 |

Same assay, conditions: Eterna round: R107; input ligand: tryptophan 2.4 mM

| Sequence | apparent KD of MS2 coat protein [nM] |
| --- | --- |
| AUGUUUGUGUGAGAUACCAGUGAGGCCACAUGAGGAUCACCCAUGUCCCUCACUCCGGCCCACCCUUGGCAGCUCUUAUAGAAAA [Exclusion Theophylline B GF 26] | 9.79 |
| AGAUGUAGCGGAAGGAGCGACAUGAGGAUCACCCAUGUCUCCCGUUAUGGGAGUUCCUUAGGUCAGGUAGGUCGCCGUUACGUCA [Omei Arg B SS B v1] | 105 |
| UUCAGCUAGUCGGCCGCCACUGCUUGAGGAUCACCCAAGUAGGUCCACACUGCUUCGGCAGUGAGUAGGACCGGGACUAGCUGAG | 25.8 |
| AAUAGUCCUCGACAUGGGUAUCACCCAUGUCGAGGACCGGUACGGCCGCCACUCGACAUGAGGAUCACCCAUGUUGAGUGAUAAA [prototype 1.1] | 9.09 |
| CAGGUGCAGUCAGAUACCAGAUCUGCACAUGAGGAUCACCCAUGUGUAAUGAGUUCAAAGAUCCCUUGGCAGCUGUGUGAUCCGA [Onbidibe] | 96.3 |
| GAUAUAUAUCGAAGGAGCGGCCCUUGAUCCUCAUGAGACAUGAGGAUCACCCAUGUCUCGGGCCAGGUAGGUCGCGAUAUAUAUC [Astros-omei-mod2] | 22.8 |
| CAAGAACAGCCGAAUCUCGGCAGCUGAGAAGGAGCGCGAGAAGUCGCAGGUAGGUCGCUCAGGAAUACAUGAGGAUCACCCAUGU [Usaronen] | 27.9 |
| UAAUAAAUAAAUCCAAGGUGAAGGUCAGAUACCAGCCAGAUAACUGGCCCUUGGCAGCUGAAUAAUCAUGAGGAUCACCCAUGAA [TheoAS 25 #OpenEnded #MS2Late #AlternativeMS2] | 19.5 |
| CCUGGAUCAGAUCUUAAAGGCGGUUCUGAUACCAGUCUUUUCCGAGACCCUUGGCAGCAGAACACAUGAGGAUCACCCAUGUAAA [theeternabot_exclusion_MS2_Theo_A_11] | 59.7 |
| UACCGAGAGGGAAGGAGCGCGAUAACAUAACAUGAGGAUCACCCAUGUAAGAAAUUAAUCAUGCAGGUAGGUCGCCCAAGCGGAU [Same State Arginine B GF 2] | 14.7 |
| AGUAGUUGACAAAAGUCAGCUACAACUGAAGGAGCGGGUGGGUGCCCAGGUAGGUCGCGGAAACAUGAGGAUCACCCAUGUAUAA [ArgAS 1 #BothOrNeither #OpenEnded] | 21.7 |
| UGUAUGUGAUUUGAUACCAGACCAGCUGGUGGUACCUGAGGAUCACCCAGGUAGGUUUGGGUCCCUUGGCAGCAAAUCGCAUACU [SS Theo B #24 Ms6] | 21.2 |
| GGGACAUCGGGAAGGAGCGCAUCCAAACCACACAUGAGGAUCACCCAUGUAUAAAUAUGCAUGCAGGUAGGUCGCCCGGUGCCUC [Axeenza] | 101 |
| UGACAUUGCUCAGAUACCAGACUUGAGGAUCACCCAAGUGCCAACAAGUAUAUAAUAAAAGUCCCUUGGCAGCUGAGCAAUGUCU [TheoBX 18#MS2Left #AlternativeMS2 #Theo2] | 17.5 |
| GGAGGUGAGAGAAGGAGCGGAAGUUUCGUUACAACAUGAGGAUCACCCAUGUAACGUUUAGUCCAGGUAGGUCGCUCUCGGGCGG [jbbgmullin] | 26.9 |
| AGAUUUAUUCUGACCGGGCUCAUUCCUGAAGGAGCGCAGAACAAUGCAGGUAGGUCGCAGGACAUGAGGAUCACCCAUGUCAGGC [Inmainzais] | 24.6 |
| UAACAUGAGGAUCACCCAUGUUUAGAUGAACGAGGACCGGUACGGCCGCCACUCGAUAAGUGGAAGAAACGAGGGAUUGUAUGAU [Same State Trp A GF2] | 18.3 |
| GGACUAACCAGAAGGAGCGGCACAGCAGAAACUGCAAAUCCUCCGCACGAGGAUCACCCGUGUCAGGUAGGUCGCUGGUUAGUCG [ArgBX 28] | 38.4 |
| UUUUUCGCGGGUGAUACCAGCAAAGCUGUACUGGUCUGGUACAUGAGGAUCACCCAUGUUUGCCCUUGGCAGCGCUCGGGAGAAG [#21 Exclusion-TheophyllineB] | 28.6 |
| GCUAGUGGCAGAAGGAGCGAGGCUACAUACGGGUACAUGAGGAUCACCCAUGUGGUGUGUACUCAGGUAGGUCGCUGCCACUAGC [SSAB NP+V+V2 #13 Same Structure] | 467 |
| AAGGUGAUCCCAGAUACCAGCUUAACAUGAGGAUCACCCAUGUAACGGACGAAAGUCCGGAGCCCUUGGCAGCUGGGUUGCCAAG [SSTheo B #14] | 90.9 |
| AUGUCGUUGAAUAUAGCGGCUUGGUGUGAUACCAGAAUGAUCAAAUUCCCUUGGCAGCAUUACAUGAGGAUCACCCAUGUUUAGG [SSTheo A #18] | 29.3 |
| UCACAUGAGGAUCACCCAUGUGUCAGAGAAGGAGCGGCCGCAAGGCCAGGUAGGUCGCUCAGGUAGCGUGAGGAUCACCCGUGUG [#1 Exclusion - Arginine A Attempt #10 (Inspired by cyborg)] | 117 |
| GGGUGCGGGUGAAGGAGCGUGAAGACAUGAGGAUCACCCAUGUAGAGGCCCGAACAGGGUUCGCAGGUAGGUCGCACCCGUGCCC [#1 Same State - Arginine B Attempt #3 (HarryS)] | 16.4 |
| GGGAGGGAGGCGGCCGCCACUGAUUUUCAUAUAUAUAUAACAUGAGGAUCACCCAUGUGGAUAUGCAGGACCGGGCCUUUUUUUU [aaaJ] | 20.2 |
| ACAUAGAGAUUAAUCGUGGGCAUACUCGAUACCAGUAUUUUAACCUACCCUUGGCAGCGACAUGAGGAUCACCCAUGUGAGAUGA [XTheo A #9] | 23 |
| GUGCGGUCUGAUGAUACCAGAUGUGGUGGGAACAUGAGGAUCACCCAUGUUGUGAGGCAGGUCCCUUGGCAGCAUGAGUGAGCUU [TheoB-ms2@32-2] | 72.6 |
| UGUAUGUGAUCUGAUACCAGCUUAAUAGCUUGAGGAUCACCCAAGUGGAGCGGAAACGCUAGCCCUUGGCAGCAGAUCGCAUACU [Denovo 10 #StaticStem #AlternativeMS2] | 198 |
| UGUUUUAAAAGUGAUACCAGACAAACAUGAGGAUCACCCAUGUAACAUGAGAGAUAAUAAGUCCCUUGGCAGCACAUAAUUAGUA [JR_Nu_SSTheophyB_Sub028] | 31.5 |
